Consider 6 molecules from article PMC8643695 (Nucleic Acids Research, 2021).

Positions count from the first letter of the chain named. Names may count otherwise. Read-outs that look alike come from different tables or passages of the source.

For data set [1], the target named is C9A SpCstR C9A (Streptococcus pneumoniae D39) (UniProt A0A0H2ZNA4). The data set is described as follows: fluorescence anisotropy. The conditions noted are these: 10 nM dsDNA, 25 mM Tris-HCl, 200 mM NaCl, 2 mM EDTA, 2 mM TCEP, pH 8.0, 25 C. (Polarisation of emitted light reports the rotation of a fluorescent probe.)
Data set [2] concerns SmCstR (Streptococcus mitis SVGS_061). The data set is described as follows: fluorescence anisotropy. The note with it: 10 nM dsDNA, 25 mM Tris-HCl, 200 mM NaCl, 2 mM EDTA, 2 mM TCEP, pH 8.0, 25 C.
Another data set has as its target C9R SpCstR (Streptococcus pneumoniae D39, UniProt A0A0H2ZNA4 1-85, C9R). The data set is described as follows: fluorescence anisotropy.
Data set [3] deals with the molecule itself. Nature of the data set: crystal structure.
Data set [4] concerns the molecule itself. The data set is described as follows: crystal structure. This is another data set of the same source.
Data set [5] concerns the molecule itself. Nature of the data set: crystal structure. This is another data set of the same source.

Sp adcA (AdcR) operator registered a Ka in data set [1] of 490000 M⁻¹.

The molecule “TACCTCCAAATATACCCTTATGGGGTATATTAAA (double strand) [S. mitis cst operator]” displayed a Ka in data set [2] of 1.4e+08 M⁻¹.

B1: S. mitis cst operator (dsDNA)
DNA 1: TACCTCCAAATATACCCTTATGGGGTATATTAAA
DNA 2: TTTAATATACCCCATAAGGGTATATTTGGAGGTA
With B1, in the data set with C9R SpCstR, the binding result was “binds”.

B2: selenomethionine (SeMet)-substituted C9A SpCstR (natural protein, Streptococcus pneumoniae D39)
chain: TNSKYITALKRSEGQLRGIQKMIEGDRDCADIVTQLTAVRSSVERVIEMIITENLTECINQPLDDSEAQKERLEKAIRYLIKRK
modifications: selenomethionine in place of methionine
Broadly, the stoichiometry N is a count of units in the complex or per binding partner. On to B2, for which, in the data set “crystal structure [3]”, the “stoichiometry N” value turned out to be 4.

B3: C9A S. pneumoniae CstR (locus tag SPD_0073) (natural protein, Streptococcus pneumoniae D39)
chain: B2 chain
Turning to B3, in the data set “crystal structure [4]”, the “stoichiometry N” value was 6.

B4: C9A/N55A S. pneumoniae CstR (locus tag SPD_0073) (natural protein, Streptococcus pneumoniae D39)
chain: B2 chain with N54A
As to B4, the “stoichiometry N” value in “crystal structure [5]” came out at 4.
